From publication PMC9892613
Where “and” joins values, the source holds several entries; their conditions need not be identical. Identical values can stand only once.

Columns and labels:
[1] = target: HIV-1 capsid protein p24 (His-p24) (HIV-1) (UniProt P12493); assay: BLI; in the same nanobody storage buffer (Fig. S5)
[2] = target: HIV-1 capsid protein p24 (His-p24) (HIV-1) (UniProt P12493); assay: ITC; nanobody (200 uM, syringe) titrated into His-p24 (12.5 uM, cell); 10 mM phosphate pH 8, 25 mM NaCl; 25.1 C; at least triplicate

| Binder | Kd [1] [nM] | dH [2] |
| --- | --- | --- |
| nanobody 59H10 (VHH) VHH: DVQLQESGGGLVQAGGSLRLSCAASGSISRFNAMGWWRQAPGKEREFVARIVKGFDPVLADSVKGRFTISIDSAENTLALQMNRLKPEDTAVYYCFAALDTAYWGQGTQVTVSS | 0.77 | -3.9 kcal/mol |
| nanobody 37E7 (VHH) VHH: DVQLQESGGGLVQAGGSLRLSCAASGSISRFNAMGWWRQAPGKEREFVARIVKGGYAVLADSVKGRFTISIDSAENTLALQMNRLKPEDTAVYYCFAALDTAYWGQGTQVTVSS | 9.6 | -4.1 kcal/mol and -4.09 kcal/mol |
